Reference: the supplement of paper PMC10567573

B1: FAM46D (parent)
chain: FQEAMTHLQHKLICTRKPEEIRGG

Variants of: B1
Assay: protein stability index of a GFP-peptide fusion (GPS, HEK-293T) (PSI 1-6); higher = more stable
Conditions: c terminus: a fixed tail appended
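Note: lentivirally expressed fusions sorted by FACS into six bins by GFP to DsRed ratio, PSI derived from sequencing read proportions per bin multiplied by bin number.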

Q: For FQEAMTHLQHKLICTRKCEEIRGG [P18C], which protein stability index is on record?
A: 1.3

Q: For FQEAMTHLQHKLICTRKAEEIRGG [P18A], which protein stability index is on record?
A: 2.72

Q: With FQEAMTHLQHKLICTRCPEEIRGG [K17C] as the variant, how does the protein stability index read?
A: 1.91

Q: Which protein stability index does the source give for FQEAMTHLQHKLICTRRPEEIRGG [K17R] here?
A: 2.02

Q: With FQEAMTHLQHKLICTRLPEEIRGG [K17L] as the variant, how does the protein stability index read?
A: 1.66

Q: Which protein stability index does the source give for FQEAMTHLQHKLICTRFPEEIRGG [K17F] here?
A: 2.03

Q: For FQEAMTHLQHKLICTRHPEEIRGG [K17H], which protein stability index is on record?
A: 2.38

Q: For FQEAMTHLQHKLICTRMPEEIRGG [K17M], which protein stability index is on record?
A: 2.87

Q: For FQEAMTHLQHKLICTREPEEIRGG [K17E], which protein stability index is on record?
A: 3.03

Q: For FQEAMTHLQHKLICTRAPEEIRGG [K17A], which protein stability index is on record?
A: 2.58

Q: With FQEAMTHLQHKLICTRQPEEIRGG [K17Q] as the variant, how does the protein stability index read?
A: 2.33

Q: With FQEAMTHLQHKLICTRVPEEIRGG [K17V] as the variant, how does the protein stability index read?
A: 2.64

Q: With FQEAMTHLQHKLICTRTPEEIRGG [K17T] as the variant, how does the protein stability index read?
A: 2.65

Q: For FQEAMTHLQHKLICTRPPEEIRGG [K17P], which protein stability index is on record?
A: 2.52

Q: Which protein stability index does the source give for FQEAMTHLQHKLICTRIPEEIRGG [K17I] here?
A: 2.68

Q: With FQEAMTHLQHKLICTRWPEEIRGG [K17W] as the variant, how does the protein stability index read?
A: 2.03

Q: With FQEAMTHLQHKLICTRNPEEIRGG [K17N] as the variant, how does the protein stability index read?
A: 2.9

Q: With FQEAMTHLQHKLICTRGPEEIRGG [K17G] as the variant, how does the protein stability index read?
A: 2.77

Q: For FQEAMTHLQHKLICTRYPEEIRGG [K17Y], which protein stability index is on record?
A: 1.85

Q: Which protein stability index does the source give for FQEAMTHLQHKLICTRSPEEIRGG [K17S] here?
A: 2.75

Q: For FQEAMTHLQHKLICTRDPEEIRGG [K17D], which protein stability index is on record?
A: 3.46

Q: With FQEAMTHLQHKLICTLKPEEIRGG [R16L] as the variant, how does the protein stability index read?
A: 2.55

Q: With FQEAMTHLQHKLICTHKPEEIRGG [R16H] as the variant, how does the protein stability index read?
A: 2.6

Q: For FQEAMTHLQHKLICTMKPEEIRGG [R16M], which protein stability index is on record?
A: 2.21

Q: With FQEAMTHLQHKLICTCKPEEIRGG [R16C] as the variant, how does the protein stability index read?
A: 1.84

Q: With FQEAMTHLQHKLICTPKPEEIRGG [R16P] as the variant, how does the protein stability index read?
A: 2.87

Q: With FQEAMTHLQHKLICTNKPEEIRGG [R16N] as the variant, how does the protein stability index read?
A: 3.02

Q: Which protein stability index does the source give for FQEAMTHLQHKLICTFKPEEIRGG [R16F] here?
A: 2.62

Q: Which protein stability index does the source give for FQEAMTHLQHKLICTAKPEEIRGG [R16A] here?
A: 3.35

Q: Which protein stability index does the source give for FQEAMTHLQHKLICTTKPEEIRGG [R16T] here?
A: 2.56

Q: With FQEAMTHLQHKLICTGKPEEIRGG [R16G] as the variant, how does the protein stability index read?
A: 2.6

Q: For FQEAMTHLQHKLICTKKPEEIRGG [R16K], which protein stability index is on record?
A: 2.09

Q: Which protein stability index does the source give for FQEAMTHLQHKLICTDKPEEIRGG [R16D] here?
A: 2.68

Q: With FQEAMTHLQHKLICTIKPEEIRGG [R16I] as the variant, how does the protein stability index read?
A: 2.08

Q: With FQEAMTHLQHKLICTYKPEEIRGG [R16Y] as the variant, how does the protein stability index read?
A: 3.21

Q: Which protein stability index does the source give for FQEAMTHLQHKLICTSKPEEIRGG [R16S] here?
A: 2.75

Q: For FQEAMTHLQHKLICTEKPEEIRGG [R16E], which protein stability index is on record?
A: 2.57

Q: With FQEAMTHLQHKLICTVKPEEIRGG [R16V] as the variant, how does the protein stability index read?
A: 2.77

Q: For FQEAMTHLQHKLICTQKPEEIRGG [R16Q], which protein stability index is on record?
A: 3.16

Q: For FQEAMTHLQHKLICTWKPEEIRGG [R16W], which protein stability index is on record?
A: 1.67

Q: With FQEAMTHLQHKYICTRKPEEIRGG [L12Y] as the variant, how does the protein stability index read?
A: 2.31

Q: For FQEAMTHLQHKLPCTRKPEEIRGG [I13P], which protein stability index is on record?
A: 2.95

Q: Which protein stability index does the source give for FQEAMTHLQHKLDCTRKPEEIRGG [I13D] here?
A: 2.57

Q: For FQEAMTHLQHKLCCTRKPEEIRGG [I13C], which protein stability index is on record?
A: 3.07

Q: With FQEAMTHLQHKLTCTRKPEEIRGG [I13T] as the variant, how does the protein stability index read?
A: 2.52

Q: For FQEAMTHLQHKLMCTRKPEEIRGG [I13M], which protein stability index is on record?
A: 2.61

Q: For FQEAMTHLQHKLKCTRKPEEIRGG [I13K], which protein stability index is on record?
A: 3.67

Q: With FQEAMTHLQHKLYCTRKPEEIRGG [I13Y] as the variant, how does the protein stability index read?
A: 3.58

Q: With FQEAMTHLQHKLLCTRKPEEIRGG [I13L] as the variant, how does the protein stability index read?
A: 2.13

Q: For FQEAMTHLQHKLECTRKPEEIRGG [I13E], which protein stability index is on record?
A: 3.67

Q: Which protein stability index does the source give for FQEAMTHLQHKLNCTRKPEEIRGG [I13N] here?
A: 3.33

Q: Which protein stability index does the source give for FQEAMTHLQHKLGCTRKPEEIRGG [I13G] here?
A: 2.67

Q: With FQEAMTHLQHKLRCTRKPEEIRGG [I13R] as the variant, how does the protein stability index read?
A: 2.72

Q: Which protein stability index does the source give for FQEAMTHLQHKLACTRKPEEIRGG [I13A] here?
A: 2.76

Q: With FQEAMTHLQHKLVCTRKPEEIRGG [I13V] as the variant, how does the protein stability index read?
A: 2.76

Q: For FQEAMTHLQHKLQCTRKPEEIRGG [I13Q], which protein stability index is on record?
A: 3.58

Q: Which protein stability index does the source give for FQEAMTHLQHKLHCTRKPEEIRGG [I13H] here?
A: 2.54

Q: With FQEAMTHLQHKLSCTRKPEEIRGG [I13S] as the variant, how does the protein stability index read?
A: 2.94

Q: For FQEAMTHLQHKLFCTRKPEEIRGG [I13F], which protein stability index is on record?
A: 1.73

Q: With FQEAMTHLQHKLINTRKPEEIRGG [C14N] as the variant, how does the protein stability index read?
A: 2.71

Q: For FQEAMTHLQHKLIGTRKPEEIRGG [C14G], which protein stability index is on record?
A: 2.63

Q: With FQEAMTHLQHKLIKTRKPEEIRGG [C14K] as the variant, how does the protein stability index read?
A: 2.6

Q: Which protein stability index does the source give for FQEAMTHLQHKLIPTRKPEEIRGG [C14P] here?
A: 2.33

Q: With FQEAMTHLQHKLISTRKPEEIRGG [C14S] as the variant, how does the protein stability index read?
A: 2.87

Q: With FQEAMTHLQHKLIWTRKPEEIRGG [C14W] as the variant, how does the protein stability index read?
A: 1.68

Q: For FQEAMTHLQHKLIVTRKPEEIRGG [C14V], which protein stability index is on record?
A: 2.96

Q: With FQEAMTHLQHKLITTRKPEEIRGG [C14T] as the variant, how does the protein stability index read?
A: 2.7

Q: For FQEAMTHLQHKLIFTRKPEEIRGG [C14F], which protein stability index is on record?
A: 2.58

Q: With FQEAMTHLQHKLIITRKPEEIRGG [C14I] as the variant, how does the protein stability index read?
A: 2.21

Q: With FQEAMTHLQHKLIETRKPEEIRGG [C14E] as the variant, how does the protein stability index read?
A: 3.36

Q: For FQEAMTHLQHKLIMTRKPEEIRGG [C14M], which protein stability index is on record?
A: 2.38

Q: For FQEAMTHLQHKLIQTRKPEEIRGG [C14Q], which protein stability index is on record?
A: 2.51

Q: Which protein stability index does the source give for FQEAMTHLQHKLIRTRKPEEIRGG [C14R] here?
A: 3.28

Q: Which protein stability index does the source give for FQEAMTHLQHKLILTRKPEEIRGG [C14L] here?
A: 2.55

Q: With FQEAMTHLQHKLIHTRKPEEIRGG [C14H] as the variant, how does the protein stability index read?
A: 2.82

Q: Which protein stability index does the source give for FQEAMTHLQHKLIDTRKPEEIRGG [C14D] here?
A: 3.17

Q: For FQEAMTHLQHKLIYTRKPEEIRGG [C14Y], which protein stability index is on record?
A: 2.45

Q: With FQEAMTHLQHKLICVRKPEEIRGG [T15V] as the variant, how does the protein stability index read?
A: 2.94

Q: For FQEAMTHLQHKLICCRKPEEIRGG [T15C], which protein stability index is on record?
A: 2.42

Q: Which protein stability index does the source give for FQEAMTHLQHKLICERKPEEIRGG [T15E] here?
A: 3.06

Q: Which protein stability index does the source give for FQEAMTHLQHKLICMRKPEEIRGG [T15M] here?
A: 3.17

Q: With FQEAMTHLQHKLICQRKPEEIRGG [T15Q] as the variant, how does the protein stability index read?
A: 3.31

Q: Which protein stability index does the source give for FQEAMTHLQHKLICHRKPEEIRGG [T15H] here?
A: 2.22

Q: For FQEAMTHLQHKLICYRKPEEIRGG [T15Y], which protein stability index is on record?
A: 2.17

Q: For FQEAMTHLQHKLICWRKPEEIRGG [T15W], which protein stability index is on record?
A: 2.31

Q: With FQEAMTHLQHKLICNRKPEEIRGG [T15N] as the variant, how does the protein stability index read?
A: 2.79

Q: With FQEAMTHLQHKLICIRKPEEIRGG [T15I] as the variant, how does the protein stability index read?
A: 2.21

Q: For FQEAMTHLQHKLICPRKPEEIRGG [T15P], which protein stability index is on record?
A: 3.04

Q: With FQEAMTHLQHKLICLRKPEEIRGG [T15L] as the variant, how does the protein stability index read?
A: 1.77

Q: With FQEAMTHLQHKLICARKPEEIRGG [T15A] as the variant, how does the protein stability index read?
A: 3.06

Q: Which protein stability index does the source give for FQEAMTHLQHKLICDRKPEEIRGG [T15D] here?
A: 3.01

Q: For FQEAMTHLQHKLICKRKPEEIRGG [T15K], which protein stability index is on record?
A: 3.42

Q: With FQEAMTHLQHKLICSRKPEEIRGG [T15S] as the variant, how does the protein stability index read?
A: 2.92

Q: Which protein stability index does the source give for FQEAMTHLQHKLICGRKPEEIRGG [T15G] here?
A: 3.56
